Reference: PMC10866649 (2024)

B1: Mouse neonatal Fc receptor (mFcRn) (receptor)
chain 1: SETRPPLMYHLTAVSNPSTGLPSFWATGWLGPQQYLTYNSLRQEADPCGAWMWENQVSWYWEKETTDLKSKEQLFLEALKTLEKILNGTYTLQGLLGCELASDNSSVPTAVFALNGEEFMKFNPRIGNWTGEWPETEIVANLWMKQPDAARKESEFLLNSCPERLLGHLERGRRNLEWKEPPSMRLKARPGNSGSSVLTCAAFSFYPPELKFRFLRNGLASGSGNCSTGPNGDGSFHAWSLLEVKRGDEHHYQCQVEHEGLAQPLTVDLDSSARSS
chain 2: IQKTPQIQVYSRHPPENGKPNILNCYVTQFHPPHIEIQMLKNGKKIPKVEMSDMSFSKDWSFYILAHTEFTPTETDTYACRVKHASMAEPKTVYWDRDM

How the values were obtained:
[1] = molecular target: B1; test: SPR
[2] = molecular target: Wild-type human IgG1 Fc (Fc^WT) (human, N-linked glycan at N297, predominantly fucosylated agalactosylated or monogalactosylated); test: SPR

Row | Kd [1] [nM] | Kd [2] [nM] | Binder
1 | 0.27 | – | Human IgG1 Fc bearing the Abdeg mutations (Fc^Abdeg, efgartigimod) (domain or fragment) DKTHTCPPCPAPELLGGPSVFLFPPKPKDTLYITREPEVTCVVVDVSHEDPEVKFNWYVDGVEVHNAKTKPREEQYNSTYRVVSVLTVLHQDWLNGKEYKCKVSNKALPAPIEKTISKAKGQPREPQVYTLPPSRDELTKNQVSLTCLVKGFYPSDIAVEWESNGQPENNYKTTPPVLDSDGSFFLYSKLTVDKSRWQQGNVFSCSVMHEALKFHYTQKSLSLSPGK
2 | – | 70 | B1
